# Data: the supplement of paper PMC10126150
# ± gives the standard deviation of the averaged measurements.
# Tested on: ATP
# Experiment: switch fluorescence ratio, 500 uM ATP over buffer (Cy3 cluster intensity, sum of 5 cycles each) (fold (ratio)); higher = stronger signal-on switching upon ATP binding; sequences stand for … in TCGTCGGCAGCGTCAGATGTGTATAAGAGACAGTTTTTTTTTTTTTTTTTTTTTTTTT…TC
# Conditions: aptamer strand: ATP DNA aptamer (quencher-CACCTGGGGGAGTATTGCGGAGGAAGG + anchor), 100 nM annealed; ATP concentration: 500 uM
# In short: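 Between each of five buffer/ATP cycles, the flow-cell was stripped with NaOH and re-annealed. Each cycle imaged Cy3-labelled switching-strand clusters, annealed to 100 nM quencher-labelled ATP aptamer on a modified Illumina MiSeq flow-cell, first in selection buffer and then after 15 min with 500 uM ATP at 22 °C. The fluorescence ratio is summed target-cycle over summed buffer-cycle Cy3 intensity per cluster, averaged per switch-domain sequence, with clusters outside 100-1000 RFU excluded.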
# 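Note: ATP exposure 15 min at 22 °C before imaging.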
row,Sequence,switch fluorescence ratio
1,TTATTTATGT,1 ± 0.012
2,TTATTTCGAA,1.01 ± 0.012
3,TTATTTCGTT,0.989 ± 0.026
4,TTATTTGGTA,0.986 ± 0.044
5,TTATTTGTTG,0.971 ± 0.05
6,TTATTTTAGC,0.976 ± 0.019
7,TTATTTTCAG,0.996 ± 0.053
8,TTATTTTTAA,0.9809 ± 0.0038
9,TTATTTTTCT,1.01 ± 0.032
10,TTATTTTTT,1.02 ± 0.018
11,TTCAAATATA,1.003 ± 0.0017
12,TTCAAATCGA,1 ± 0.039
13,TTCAAATGAA,1 ± 0.016
14,TTCAAATGGA,0.991 ± 0.041
15,TTCAAGGGGT,0.994 ± 0.025
16,TTCAAGGTGC,1.4 ± 0.069
17,TTCAATGAAA,1 ± 0.054
18,TTCAATGAGG,0.973 ± 0.052
19,TTCAATGGTG,1.023 ± 0.0014
20,TTCAATTGTT,1.02 ± 0.017
21,TTCACATAGC,1.05 ± 0.1
22,TTCACTTGGA,1.03 ± 0.033
23,TTCACTTGTG,1 ± 0.018
24,TTCAGAATTG,1.0012 ± 0.00092
25,TTCAGACAGG,1.09 ± 0.02

row,Sequence,switch fluorescence ratio
1,TTCAGATTGC,0.987 ± 0.044
2,TTCAGCAGAG,1.41 ± 0.59
3,TTCAGCGTCT,0.975 ± 0.043
4,TTCAGCTGTT,1.01 ± 0.011
5,TTCAGGCATG,0.999 ± 0.04
6,TTCAGGCTGT,0.9811 ± 0.0054
7,TTCAGGGGGA,1.02 ± 0.023
8,TTCAGGGTTT,1.5 ± 0.9
9,TTCAGGTGCC,1.46 ± 0.04
10,TTCAGTTTAG,1 ± 0.031
11,TTCAGTTTTG,0.982 ± 0.024
12,TTCATAGTCG,0.98 ± 0.07
13,TTCATCCAGC,1.13 ± 0.07
14,TTCATCGCTG,1.04 ± 0.053
15,TTCATGGAGT,0.983 ± 0.028
16,TTCATGGATA,0.999 ± 0.066
17,TTCATGGGGA,0.985 ± 0.023
18,TTCATGGGGT,1.04 ± 0.033
19,TTCATGTGAA,1 ± 0.04
20,TTCATTACCC,1.028 ± 0.0082
21,TTCATTCCGA,1.29 ± 0.095
22,TTCATTTACA,1.04 ± 0.033
23,TTCCAAGGGA,1 ± 0.029
24,TTCCAGGATT,1.04 ± 0.089
25,TTCCAGTCC,1.06 ± 0.027

row,Sequence,switch fluorescence ratio
1,TTCCATGGCC,1.04 ± 0.044
2,TTCCCAAATT,1.19 ± 0.19
3,TTCCCCATTG,1.09 ± 0.023
4,TTCCCCGGCA,1.28 ± 0.35
5,TTCCCGATCA,1.01 ± 0.018
6,TTCCCTGTTT,1.01 ± 0.023
7,TTCCCTTAAT,1 ± 0.015
8,TTCCGACCGG,1.28 ± 0.38
9,TTCCGATTCG,1.09 ± 0.035
10,TTCCGGAGGC,1.22 ± 0.28
11,TTCCGGGCGT,1.12 ± 0.058
12,TTCCGGGGAA,1.16 ± 0.21
13,TTCCGGTGTT,1.05 ± 0.079
14,TTCCGGTTGG,1 ± 0.023
15,TTCCTAAAGA,1.06 ± 0.03
16,TTCCTAAATT,0.9979 ± 0.0034
17,TTCCTAATGG,1.04 ± 0.046
18,TTCCTAATTT,1.63 ± 0.94
19,TTCCTCGGGT,1.03 ± 0.014
20,TTCCTGAAGG,1.02 ± 0.041
21,TTCCTGGCGG,1.11 ± 0.1
22,TTCCTTCT,1.13 ± 0.11
23,TTCCTTGCGT,1.14 ± 0.043
24,TTCCTTGGGA,0.984 ± 0.014
25,TTCCTTGTAG,1.02 ± 0.017

row,Sequence,switch fluorescence ratio
1,TTCGAAAGTT,0.987 ± 0.026
2,TTCGACATGT,1.025 ± 0.0042
3,TTCGAGCTAA,1.2 ± 0.26
4,TTCGAGTCGT,1.006 ± 0.0034
5,TTCGATAAGA,0.999 ± 0.06
6,TTCGATAATC,1.15 ± 0.16
7,TTCGATATGT,0.984 ± 0.022
8,TTCGATCCGT,1.07 ± 0.029
9,TTCGATTGGG,0.95725 ± 0.00037
10,TTCGCAGGGA,1.074 ± 0.0042
11,TTCGCATATT,1.47 ± 0.26
12,TTCGCCAGAT,1.04 ± 0.035
13,TTCGCGAGGT,2.67 ± 2.3
14,TTCGCGATGT,1.13 ± 0.11
15,TTCGCGTGTT,1.003 ± 0.0055
16,TTCGCTACGT,1.02 ± 0.021
17,TTCGCTAGCT,1.03 ± 0.058
18,TTCGGACGGT,1.04 ± 0.06
19,TTCGGAGCGG,1.34 ± 0.24
20,TTCGGATAAA,1.01 ± 0.058
21,TTCGGATATA,0.9915 ± 0.0063
22,TTCGGCAACG,0.997 ± 0.035
23,TTCGGCTCTC,1.63 ± 0.86
24,TTCGGCTTGG,0.984 ± 0.035
25,TTCGGCTTTT,0.983 ± 0.024
